Results reported in publication PMC6983407.

Assays:
[1] = biological target: recombinant FIPV-UU4 S protein (ectodomain of the spike protein of serotype I feline infectious peritonitis virus strain UU4, fused with the trimerization domain of T4 fibritin) (feline infectious peritonitis virus, serotype I, strain UU4 | bacteriophage T4); assay: native gel or EMSA
[2] = biological target: recombinant FIPV-UU4 S protein (ectodomain of the spike protein of serotype I feline infectious peritonitis virus strain UU4, fused with the trimerization domain of T4 fibritin) (feline infectious peritonitis virus, serotype I, strain UU4 | bacteriophage T4); assay: cryo-EM structure

recombinant FIPV-UU4 S protein (ectodomain of the spike protein of serotype I feline infectious peritonitis virus strain UU4, fused with the trimerization domain of T4 fibritin) (natural protein)
stoichiometry N [1]: 3 | stoichiometry N [2]: 3
